Measurements published in patent US20200317768A1 (published 2020).
Where a chain is given by its changes, count along the chain named.

B1: MS103240H795-TT67/M103202L1045-SK1 (antibody)
heavy: QVQLVESGGGLVQPGGSLRLSCAVSGIDLSHDDISWVRQAPGKGLEWVSIISYAGSTYYASWAKGRLTISKDTSKNQVVLTMTNMDPVDTATYYCARGVPAYSHGGDLWGQGTLVTVSSASTKGPSVFPLAPSSKSTSGGTAALGCLVKDYFPEPVTVSWNSGALTSGVHTFPAVLQSSGLYSLSSVVTVPSSSLGTQTYICNVNHKPSNTKVDKKVEPKSCDKTHTCPPCPAPELLGGDSVFLFPPKPKDVLMISRTPEVTCVVVDVSHEDPEVKFNWYVDGVEVHNAKTKPREEQYNSTYRVVSVLPVLHRDWLNGKEYKCKVSNKALPKPIEKTISKAKGQRREPQVYTLPPSREEMTKNQVSLTCLVKGFYPSDIAVEWESNGQPENNYKTTPPVLDSDGSFFLYSKLTVDKSRWQQGNVFSCSVLHEALHAHTTRKELSLSP
light: DIVMTQSPATLSLSPGERATLSCTTSQSVYHENWLSWFQQKPGQPPKLLIYWASTLAYGVPSRFSGSGSGTDFTLTISSLQPEDAATYYCAGGYGGGRYAFGQGTKVEIKRTVAAPSVFIFPPSDEQLKSGTASVVCLLNNFYPREAKVQWKVDNALQSGNSQESVTEQDSKDSTYSLSSTLTLSKADYEKHKVYACEVTHQGLSSPVTKSFNRGEC
B2: MS103240H795-TT93/M103202L1045-SK1 (antibody)
heavy: B1 heavy with L236Y, V266I, R345P, D415K
light: B1 light
notes: copies: 2 + 2
B3: MS103240H795-TT91/M103202L1045-SK1 (antibody)
heavy: B1 heavy with L236Y, V266I
light: B1 light
B4: MS103240H795-TT71/M103202L1045-SK1 (antibody)
heavy: B1 heavy with V266I
light: B1 light
B5: MS103240H795-TT69/M103202L1045-SK1 (antibody)
heavy: B1 heavy with R345P, D415K
light: B1 light
notes: copies: 2 + 2
B6: MS103240H795-TT68/M103202L1045-SK1 (antibody)
heavy: B1 heavy with R345P, D415K, L430M, T438Y
light: B1 light
notes: copies: 2 + 2
B7: MS103240H795-TT92/M103202L1045-SK1 (antibody)
heavy: B1 heavy with L236Y, V266I, R345P, D415K, L430M, T438Y
light: B1 light
notes: copies: 2 + 2
B8: MS103240H795-TT70/M103202L1045-SK1 (antibody)
heavy: B1 heavy with V266I, L430M, T438Y
light: B1 light
B9: MS103240H795-TT90/M103202L1045-SK1 (antibody)
heavy: B1 heavy with L236Y, V266I, L430M, T438Y
light: B1 light
B10: MS103240H795-TT72/M103202L1045-SK1 (antibody)
heavy: B1 heavy with V266I, R345P, D415K, L430M, T438Y
light: B1 light
notes: copies: 2 + 2
B11: MS103240H795-TT73/M103202L1045-SK1 (antibody)
heavy: B1 heavy with V266I, R345P, D415K
light: B1 light
notes: copies: 2 + 2

Target: T1, human FcγRIIaH extracellular domain, C-terminal His-tag (human, UniProt P12318 34-217)
T1 construct: Soluble extracellular domain expressed in FreeStyle 293 cells; also called FcgRIIaH; human FcγRIIa (type H); not shown: His-tag added to the C-terminus
T1 sequence: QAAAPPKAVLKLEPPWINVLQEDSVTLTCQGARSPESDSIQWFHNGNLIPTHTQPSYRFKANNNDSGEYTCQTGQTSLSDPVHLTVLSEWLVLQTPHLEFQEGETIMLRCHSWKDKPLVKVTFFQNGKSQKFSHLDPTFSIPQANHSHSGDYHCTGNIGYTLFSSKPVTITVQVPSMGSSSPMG
Assay: SPR (BIACORE); KD of SG1 divided by KD of the variant
Experimental: (§1) The kinetic analysis of interactions between these antibodies and FcγR was carried out using BIACORE® T200 or BIACORE® 4000 (GE Healthcare). HBS-EP+ (GE Healthcare) was used as the running buffer, and the measurement temperature was set to 25° C. A chip produced by immobilizing Protein A. Protein A/G or mouse anti-human IgG kappa light chain (BD Biosciences) onto a Series S Sensor Chip CM4 or CM5 (GE Healthcare) by the amine-coupling method was used. […] After the measurement, the antibody captured on the chip was washed off by allowing reaction with 10 mM glycine-HCl, pH1.5 and 25 mM NaOH so that the chip was regenerated and used repeatedly. The sensorgrams obtained as measurement results were analyzed by the 1:1 Langmuir binding model using the BIACORE® Evaluation Software to calculate the binding rate constant ka (L/mol/s) and dissociation rate constant kd (l/s), and the dissociation constant KD (mol/L) was calculated from these values. […] Regarding such interactions, KD values were calculated using the following 1:1 binding model described in BIACORE® T100 Software Handbook BR1006-48 Edition AE.
(§2) Furthermore, the substitutions used in Example 29 for improving antibody half-life and reducing binding to rheumatoid factor were introduced into human FcγRIIb-enhanced Fc variants and their affinity against human FcγRs were analyzed (Table 29). In this SPR analysis, all the data were obtained using mouse anti-human IgG kappa light chain for capturing the antibodies of interest.

In order of rising “KD fold for humanFcgRs (SG1 = 1)” value:
1. B6  0.005 fold
2. B1  0.008 fold
3. B5  0.008 fold
4. B4  0.01 fold
5. B10  0.012 fold
6. B8  0.013 fold
7. B11  0.013 fold
8. B2  0.019 fold
9. B3  0.021 fold
10. B7  0.024 fold
11. B9  0.033 fold

Target: T2, human FcγRIIaR extracellular domain, C-terminal His-tag (human, UniProt P12318 34-217)
T2 construct: Soluble extracellular domain expressed in FreeStyle 293 cells; also called FcgRIIaR; human FcγRIIa (type R); not shown: His-tag added to the C-terminus
T2 chain: T1 sequence with H134R
Assay: as above
Experimental: as §1, §2

In order of rising “KD fold for humanFcgRs (SG1 = 1)” value:
1. B6  0.02 fold
2. B8  0.03 fold
3. B1  0.04 fold
4. B3  0.04 fold
5. B4  0.04 fold
6. B5  0.04 fold
7. B2  0.05 fold
8. B9  0.05 fold
9. B10  0.05 fold
10. B7  0.06 fold
11. B11  0.06 fold

Target: T3, human FcγRIIIaV extracellular domain, C-terminal His-tag (human, UniProt P08637 17-208)
T3 construct: Soluble extracellular domain expressed in FreeStyle 293 cells; also called FcgRIIIaV; not shown: His-tag added to the C-terminus
Assay: as above
Experimental: as §1, §2

T3 sequence (P08637 17-208 F176V): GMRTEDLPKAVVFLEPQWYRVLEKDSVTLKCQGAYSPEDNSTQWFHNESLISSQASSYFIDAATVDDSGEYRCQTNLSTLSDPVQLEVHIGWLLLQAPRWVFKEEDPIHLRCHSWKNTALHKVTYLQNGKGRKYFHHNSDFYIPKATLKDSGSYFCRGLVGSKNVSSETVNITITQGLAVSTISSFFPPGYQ

In order of rising “KD fold for humanFcgRs (SG1 = 1)” value:
1. B1  0.001 fold
2. B5  0.001 fold
3. B6  0.001 fold
4. B7  0.001 fold
5. B10  0.001 fold
6. B11  0.001 fold
7. B2  0.002 fold
8. B3  0.002 fold
9. B4  0.002 fold
10. B8  0.002 fold
11. B9  0.002 fold

Target: T4, human FcγRIIb extracellular domain, C-terminal His-tag (human, UniProt P31994 43-217)
T4 construct: Soluble extracellular domain expressed in FreeStyle 293 cells; also called FcgRIIb; not shown: His-tag added to the C-terminus
T4 sequence: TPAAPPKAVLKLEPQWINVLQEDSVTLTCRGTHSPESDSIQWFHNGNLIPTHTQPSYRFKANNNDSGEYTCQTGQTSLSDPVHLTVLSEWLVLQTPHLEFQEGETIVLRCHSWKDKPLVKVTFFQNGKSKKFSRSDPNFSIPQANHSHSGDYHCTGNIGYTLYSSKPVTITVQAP
Assay: as above
Experimental: as §1, §2

In order of falling “KD fold for humanFcgRs (SG1 = 1)” value:
1. B7  16.8 fold
2. B9  15.7 fold
3. B2  15.2 fold
4. B3  14.7 fold
5. B8  12.7 fold
6. B10  11.8 fold
7. B4  11.2 fold
8. B11  11.2 fold
9. B6  4.9 fold
10. B5  4.3 fold
11. B1  3.9 fold

Target: T1, human FcγRIIaH extracellular domain, …
Assay: SPR (BIACORE), antibody captured by mouse anti-human IgG kappa light chain, FcgR extracellular domain as analyte, 25 C
Experimental: as §1, §2

In order of falling Kd:
1. B6  210 µM
2. B5  130 µM
3. B1  120 µM
4. B4  96 µM
5. B10  79 µM
6. B11  74 µM
7. B8  72 µM
8. B2  52 µM
9. B3  46 µM
10. B7  40 µM
11. B9  29 µM

Target: T2, human FcγRIIaR extracellular domain, …
Assay: as above
Experimental: as §1, §2

In order of rising Kd:
1. B11  19 µM
2. B7  20 µM
3. B2  24 µM
4. B10  24 µM
5. B9  25 µM
6. B4  27 µM
7. B1  28 µM
8. B3  30 µM
9. B5  34 µM
10. B8  40 µM
11. B6  61 µM

Target: T3, human FcγRIIIaV extracellular domain, …
Assay: as above
Experimental: as §1, §2

In order of falling Kd:
1. B1  610 µM
2. B11  550 µM
3. B5  530 µM
4. B10  500 µM
5. B7  490 µM
6. B6  480 µM
7. B2  470 µM
8. B3  450 µM
9. B4  400 µM
10. B8  390 µM
11. B9  360 µM

Target: T4, human FcγRIIb extracellular domain, …
Assay: as above
Experimental: as §1, §2

In order of rising Kd:
1. B7  0.28 µM
2. B9  0.3 µM
3. B2  0.31 µM
4. B3  0.32 µM
5. B8  0.37 µM
6. B10  0.4 µM
7. B4  0.42 µM
8. B11  0.42 µM
9. B6  0.96 µM
10. B5  1.1 µM
11. B1  1.2 µM
